Experimental data reported in article doi:10.1101/749176, “ZapA tetramerization is required for midcell localization and ZapB interaction in Escherichia coli” (bioRxiv, 2019).

T1: mKO-FtsZ (Escherichia coli, UniProt P0A9A6 1-383)
T1 construct: FtsZ, Escherichia coli; also called Filamenting temperature sensitive Z; source: E. coli TB28 ΔzapA or WT strain, expressed from plasmid, in living cells
T1 sequence (looked up): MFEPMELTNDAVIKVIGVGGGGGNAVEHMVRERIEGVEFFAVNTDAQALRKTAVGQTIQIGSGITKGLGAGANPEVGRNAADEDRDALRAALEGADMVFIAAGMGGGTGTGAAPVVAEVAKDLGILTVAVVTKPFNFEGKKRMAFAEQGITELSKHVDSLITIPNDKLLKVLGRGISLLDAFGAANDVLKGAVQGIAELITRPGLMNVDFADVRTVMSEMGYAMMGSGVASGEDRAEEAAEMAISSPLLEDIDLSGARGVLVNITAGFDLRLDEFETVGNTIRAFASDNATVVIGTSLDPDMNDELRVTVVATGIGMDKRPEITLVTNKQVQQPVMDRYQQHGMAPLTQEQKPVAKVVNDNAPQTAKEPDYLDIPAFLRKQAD

T2: mKO-PBP1a (Escherichia coli, UniProt P02918 1-850)
T2 construct: PBP1a, inner membrane (IM) protein, Escherichia coli; Negative control partner of the FRET assay; source: E. coli TB28 ΔzapA, expressed from plasmid, in living cells
T2 sequence (looked up): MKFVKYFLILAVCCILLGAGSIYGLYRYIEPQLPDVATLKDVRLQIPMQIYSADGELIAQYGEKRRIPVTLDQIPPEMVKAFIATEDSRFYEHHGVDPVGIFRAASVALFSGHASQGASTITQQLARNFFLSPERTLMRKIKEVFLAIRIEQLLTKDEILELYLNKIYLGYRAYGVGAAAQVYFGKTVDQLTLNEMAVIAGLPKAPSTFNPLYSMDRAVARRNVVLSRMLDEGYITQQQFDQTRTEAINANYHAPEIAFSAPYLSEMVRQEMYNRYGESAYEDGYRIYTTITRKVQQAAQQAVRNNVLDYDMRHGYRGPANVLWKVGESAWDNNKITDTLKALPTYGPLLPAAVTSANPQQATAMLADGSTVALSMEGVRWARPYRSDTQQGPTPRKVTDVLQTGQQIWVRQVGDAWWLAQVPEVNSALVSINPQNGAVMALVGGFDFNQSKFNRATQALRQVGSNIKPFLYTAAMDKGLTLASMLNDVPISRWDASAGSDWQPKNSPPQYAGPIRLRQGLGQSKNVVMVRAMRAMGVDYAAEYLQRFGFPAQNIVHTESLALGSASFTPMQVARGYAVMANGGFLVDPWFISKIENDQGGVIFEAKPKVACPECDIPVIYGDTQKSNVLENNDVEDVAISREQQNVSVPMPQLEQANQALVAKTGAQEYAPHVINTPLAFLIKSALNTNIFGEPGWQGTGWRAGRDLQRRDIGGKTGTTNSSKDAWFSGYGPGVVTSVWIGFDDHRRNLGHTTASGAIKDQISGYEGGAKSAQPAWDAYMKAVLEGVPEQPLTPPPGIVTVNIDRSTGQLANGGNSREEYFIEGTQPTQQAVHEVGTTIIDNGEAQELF


Key:
mKO-FtsZ = target: T1, mKO-FtsZ; test: FRET or BRET; in vivo FRET in E. coli TB28 ΔzapA cells, mKO donor and mCh acceptor fusions expressed from plasmids; energy transfer efficiency (EfA) from unmixed emission spectra; conditions: partners not purified
mKO-PBP1a = target: T2, mKO-PBP1a; test: as above; conditions: partners not purified

Binder | energy transfer efficiency (EfA) (mKO-FtsZ) [%] | energy transfer efficiency (EfA) (mKO-PBP1a) [%]
mCh-ZapA (wild type ZapA fused to mCh) (natural protein, Escherichia coli, UniProt P0ADS2 1-109, looked up, ZapA (Z associated protein A), Escherichia coli; zapA in plasmid pSAV077; also called mCh-ZapA^WT; ZapA^WT; source: E. coli TB28 ΔzapA or WT strain, expressed from plasmid, in living cells) MSAQPVDIQIFGRSLRVNCPPDQRDALNQAADDLNQRLQDLKERTRVTNTEQLVFIAALNISYELAQEKAKTRDYAASMEQRIRMLQQTIEQALLEQGRITEKTNQNFE | 4 | < 1.7
mCh-ZapA^I83E (dimeric ZapA mutant fused to mCh) (natural protein, Escherichia coli, UniProt P0ADS2 1-109, looked up, ZapA (Z associated protein A), Escherichia coli, with I83E; zapA of pSAV077 exchanged for zapA^I83E from pRP071; source: E. coli TB28 ΔzapA or WT strain, expressed from plasmid pNM137, in living cells) MSAQPVDIQIFGRSLRVNCPPDQRDALNQAADDLNQRLQDLKERTRVTNTEQLVFIAALNISYELAQEKAKTRDYAASMEQRERMLQQTIEQALLEQGRITEKTNQNFE | – | < 1.7
mCh-PBP1b (natural protein, Escherichia coli, UniProt P02919 1-844, looked up, PBP1b, Escherichia coli; Negative control of the FRET assay; source: E. coli TB28 ΔzapA, expressed from plasmid, in living cells) MAGNDREPIGRKGKPTRPVKQKVSRRRYEDDDDYDDYDDYEDEEPMPRKGKGKGKGRKPRGKRGWLWLLLKLAIVFAVLIAIYGVYLDQKIRSRIDGKVWQLPAAVYGRMVNLEPDMTISKNEMVKLLEATQYRQVSKMTRPGEFTVQANSIEMIRRPFDFPDSKEGQVRARLTFDGDHLATIVNMENNRQFGFFRLDPRLITMISSPNGEQRLFVPRSGFPDLLVDTLLATEDRHFYEHDGISLYSIGRAVLANLTAGRTVQGASTLTQQLVKNLFLSSERSYWRKANEAYMALIMDARYSKDRILELYMNEVYLGQSGDNEIRGFPLASLYYFGRPVEELSLDQQALLVGMVKGASIYNPWRNPKLALERRNLVLRLLQQQQIIDQELYDMLSARPLGVQPRGGVISPQPAFMQLVRQELQAKLGDKVKDLSGVKIFTTFDSVAQDAAEKAAVEGIPALKKQRKLSDLETAIVVVDRFSGEVRAMVGGSEPQFAGYNRAMQARRSIGSLAKPATYLTALSQPKIYRLNTWIADAPIALRQPNGQVWSPQNDDRRYSESGRVMLVDALTRSMNVPTVNLGMALGLPAVTETWIKLGVPKDQLHPVPAMLLGALNLTPIEVAQAFQTIASGGNRAPLSALRSVIAEDGKVLYQSFPQAERAVPAQAAYLTLWTMQQVVQRGTGRQLGAKYPNLHLAGKTGTTNNNVDTWFAGIDGSTVTITWVGRDNNQPTKLYGASGAMSIYQRYLANQTPTPLNLVPPEDIADMGVDYDGNFVCSGGMRILPVWTSDPQSLCQQSEMQQQPSGNPFDQSSQPQQQPQQQPAQQEQKDSDGVAGWIKDMFGSN | – | < 1.7
